Results from doi:10.1101/538884 (bioRxiv, 2019).

Target: the molecule itself
Assay: SEC

B1: HEV^440-691 (hepatitis E virus ORF1 residues 440-691) (domain or fragment, Hepatitis E virus (HEV), UniProt P33424 440-691, looked up)
chain: AGFHLDPRVLVFDESAPCHCRTAIRKAVSKFCCFMKWLGQECTCFLQPAEGVVGDQGHDNEAYEGSDVDPAESAISDISGSYVVPGTALQPLYQALDLPAEIVARAGRLTATVKVSQVDGRIDCETLLGNKTFRTSFVDGAVLETNGPERHNLSFDASQSTMAAGPFSLTYAASAAGLEVRYVAAGLDHRAVFAPGVSPRSAPGEVTAFCSALYRFNREAQRLSLTGNFWFHPEGLLGPFAPFSPGHVWESA
Does B1 bind?
Result: binds
